Test results: article PMC2821400

Biological target: actin of the F-actin structures in focal adhesions of Vero cells (monkey (endogenous in Vero)) (UniProt Q76N69)
Test: FRAP (fluorescence recovery after photobleaching); GFP-L-plastin variants bleached in a 5 µm spot in focal adhesions of live Vero cells, 37°C; curves fitted with a two-binding-state model, reaction dominant regime; pseudo-association rates k*on = kon·Seq

Row | Substance | fold change of k*2on against WT- and S5/E-L-plastin [fold lower] | k1off (dissociation rate, first quick binding state) [s⁻¹] | k*1on (pseudo-association rate, first quick binding state) [s⁻¹] | Feq (equilibrium normalized concentration of free molecules) | k2off (dissociation rate, second slow binding state) [s⁻¹] | k*2on (pseudo-association rate, second slow binding state) [s⁻¹]
1 | Ser5/Ala (S5/A) GFP-L-plastin, expressed in Vero cells (from UniProt P13796 1-627) (natural protein) | 2 | 0.073 | 0.173 |  |  | 
2 | Ser5/Glu (S5/E) GFP-L-plastin, expressed in Vero cells (from UniProt P13796 1-627) (natural protein) |  | 0.612 | 0.42 |  |  | 
3 | wild type (WT) L-plastin fused to GFP, expressed in Vero cells (from UniProt P13796 1-627) (natural protein) |  | 0.616 | 0.338 | 0.513 | 0.03 | 0.01
